# From US20210388087A1 (Chugai, published 2021)
# Changes are numbered by the printed parent chain. In names and notes the source's numbering stands.
# T1: Human CD3eg linker (human)
# T1 construct: Single-chain construct; also called recombinant human CD3
# T1 chain: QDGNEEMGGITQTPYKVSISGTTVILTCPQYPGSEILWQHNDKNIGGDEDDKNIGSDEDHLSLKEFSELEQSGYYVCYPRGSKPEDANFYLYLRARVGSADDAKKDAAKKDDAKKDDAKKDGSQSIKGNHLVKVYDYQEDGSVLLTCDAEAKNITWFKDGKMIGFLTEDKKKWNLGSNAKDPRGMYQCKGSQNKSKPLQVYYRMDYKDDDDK
# B1: H183/L072 VL R54E (antibody, name in Kabat numbering, V domains shown)
# VH: QVQLVESGGGLVQPGRSLRLSCAASGFTFSNAWMHWVRQAPGKGLEWVAQIKDKGNAYAAYYAPSVKGRFTISRDDSKNSIYLQMNSLKTEDTAVYYCHYVHYASASTVLPAFGVDAWGQGTTVTVSS
# VL: DIVMTQSPLSLPVTPGEPASISCQASQELVHMNRNTYLHWYQQKPGQAPRLLIYKVSNEFPGVPDRFSGSGSGTDFTLKISRVEAEDVGVYYCAQGTSVPFTFGQGTKLEIK
# B2: H183/L072 VL R54S (antibody, name in Kabat numbering, V domains shown)
# VH: B1 VH
# VL: B1 VL with E59S
# B3: H183/L072 VL S26E (antibody, name in Kabat numbering, V domains shown)
# VH: B1 VH
# VL: B1 VL with S26E, E59R
# B4: H183/L072 VL R54G (antibody, name in Kabat numbering, V domains shown)
# VH: B1 VH
# VL: B1 VL with E59G
# B5: H183/L072 VL R54P (antibody, name in Kabat numbering, V domains shown)
# VH: B1 VH
# VL: B1 VL with E59P
# B6: H183/L072 VL R54T (antibody, name in Kabat numbering, V domains shown)
# VH: B1 VH
# VL: B1 VL with E59T
# B7: H183/L072 VL R54Q (antibody, name in Kabat numbering, V domains shown)
# VH: B1 VH
# VL: B1 VL with E59Q
# B8: H183/L072 VL R54H (antibody, name in Kabat numbering, V domains shown)
# VH: B1 VH
# VL: B1 VL with E59H
# B9: H183/L072 VL R54W (antibody, name in Kabat numbering, V domains shown)
# VH: B1 VH
# VL: B1 VL with E59W
# B10: H183/L072 VL R54N (antibody, name in Kabat numbering, V domains shown)
# VH: B1 VH
# VL: B1 VL with E59N
# B11: H183/L072 VL R54M (antibody, name in Kabat numbering, V domains shown)
# VH: B1 VH
# VL: B1 VL with E59M
# B12: H183/L072 VL R54V (antibody, name in Kabat numbering, V domains shown)
# VH: B1 VH
# VL: B1 VL with E59V
# B13: H183/L072 VL R54F (antibody, name in Kabat numbering, V domains shown)
# VH: B1 VH
# VL: B1 VL with E59F
# B14: H183/L072 VL R54I (antibody, name in Kabat numbering, V domains shown)
# VH: B1 VH
# VL: B1 VL with E59I
# B15: H183/L072 VL R54K (antibody, name in Kabat numbering, V domains shown)
# VH: B1 VH
# VL: B1 VL with E59K
# B16: H183/L072 VL S26D (antibody, name in Kabat numbering, V domains shown)
# VH: B1 VH
# VL: B1 VL with S26D, E59R
# B17: H183/L072 VL R54L (antibody, name in Kabat numbering, V domains shown)
# VH: B1 VH
# VL: B1 VL with E59L
# Biological target: T1, Human CD3eg linker
# Experiment: SPR; fold vs parent H183/L072
row,Binder,fold change of affinity
1,B1,0.8 fold
2,B2,1.2 fold
3,B3,0.7 fold
4,B4,1.1 fold
5,B5,0.9 fold
6,B6,0.8 fold
7,B7,1.2 fold
8,B8,1.9 fold
9,B9,1.4 fold
10,B10,1 fold
11,B11,1.7 fold
12,B12,1.1 fold
13,B13,1.5 fold
14,B14,1.3 fold
15,B15,1.7 fold
16,B16,0.8 fold
17,B17,1.3 fold
